{"source": "patent US20160194399A1", "about": "(CYTOMX THERAPEUTICS, published 2016)", "binders": {"B1": {"name": "Anti-CD3ε antibody SP34 (antibody, V domains shown)", "VH": "EVQLVESGGGLVQPKGSLKLSCAASGFTFNTYAMNWVRQAPGKGLEWVARIRSKYNNYATYYADSVKDRFTISRDDSQSILYLQMNNLKTEDTAMYYCVRHGNFGNSYVSWFAYWGQGTLVTVSA", "VL": "QAVVTQESALTTSPGETVTLTCRSSTGAVTTSNYANWVQEKPDHLFTGLIGGTNKRAPGVPARFSGSLIGDKAALTITGAQTEDEAIYFCALWYSNLWVFGGGTKLTVL", "notes": "Bought mouse monoclonal (BD Biosciences Cat# 556610); also called SP34 antibody"}}, "key": {"[1]": {"molecular_target": "T1, SP34-binding peptide 15865", "T1 peptide": "MMYCGGNEVLCGPRV", "test": "flow cytometry on peptide-displaying E. coli, 1 nM SP34-dylight-488 with 100 nM isotype control, normalised to peptide expression (yPet-Mona)"}, "[2]": {"molecular_target": "T2, SP34-binding peptide 14995", "T2 peptide": "YSLWGCEWGCDRGLY", "test": "flow cytometry on peptide-displaying E. coli, 1 nM SP34-dylight-488 with 100 nM isotype control, normalised to peptide expression (yPet-Mona)"}, "[3]": {"molecular_target": "T3, SP34-binding peptide 15003", "T3 peptide": "GYRWGCEWNCGGITT", "test": "flow cytometry on peptide-displaying E. coli, 1 nM SP34-dylight-488 with 100 nM isotype control, normalised to peptide expression (yPet-Mona)"}, "[4]": {"molecular_target": "T4, SP34-binding peptide 15263", "T4 peptide": "WYSGGCEAFCGILSS", "test": "flow cytometry on peptide-displaying E. coli, 1 nM SP34-dylight-488 with 100 nM isotype control, normalised to peptide expression (yPet-Mona)"}, "[5]": {"molecular_target": "T5, SP34-binding peptide 15286", "T5 peptide": "GYSGGCEFRCYQLYS", "test": "flow cytometry on peptide-displaying E. coli, 1 nM SP34-dylight-488 with 100 nM isotype control, normalised to peptide expression (yPet-Mona)"}, "[6]": {"molecular_target": "T6, SP34-binding peptide 15860", "T6 peptide": "VYYCGGNESLCGERR", "test": "flow cytometry on peptide-displaying E. coli, 1 nM SP34-dylight-488 with 100 nM isotype control, normalised to peptide expression (yPet-Mona)"}, "[7]": {"molecular_target": "T7, SP34-binding peptide 15864", "T7 peptide": "FMCQQRMWGNEFCHQ", "test": "flow cytometry on peptide-displaying E. coli, 1 nM SP34-dylight-488 with 100 nM isotype control, normalised to peptide expression (yPet-Mona)"}, "[8]": {"molecular_target": "T1, SP34-binding peptide 15865", "test": "flow cytometry on peptide-displaying E. coli, 10 nM SP34-dylight-488 with 100 nM isotype control, normalised to peptide expression (yPet-Mona)"}, "[9]": {"molecular_target": "T2, SP34-binding peptide 14995", "test": "flow cytometry on peptide-displaying E. coli, 10 nM SP34-dylight-488 with 100 nM isotype control, normalised to peptide expression (yPet-Mona)"}, "[10]": {"molecular_target": "T3, SP34-binding peptide 15003", "test": "flow cytometry on peptide-displaying E. coli, 10 nM SP34-dylight-488 with 100 nM isotype control, normalised to peptide expression (yPet-Mona)"}, "[11]": {"molecular_target": "T4, SP34-binding peptide 15263", "test": "flow cytometry on peptide-displaying E. coli, 10 nM SP34-dylight-488 with 100 nM isotype control, normalised to peptide expression (yPet-Mona)"}, "[12]": {"molecular_target": "T5, SP34-binding peptide 15286", "test": "flow cytometry on peptide-displaying E. coli, 10 nM SP34-dylight-488 with 100 nM isotype control, normalised to peptide expression (yPet-Mona)"}, "[13]": {"molecular_target": "T6, SP34-binding peptide 15860", "test": "flow cytometry on peptide-displaying E. coli, 10 nM SP34-dylight-488 with 100 nM isotype control, normalised to peptide expression (yPet-Mona)"}, "[14]": {"molecular_target": "T7, SP34-binding peptide 15864", "test": "flow cytometry on peptide-displaying E. coli, 10 nM SP34-dylight-488 with 100 nM isotype control, normalised to peptide expression (yPet-Mona)"}, "[15]": {"molecular_target": "T1, SP34-binding peptide 15865", "test": "flow cytometry on peptide-displaying E. coli, 0.1 nM SP34-dylight-488 with 100 nM isotype control, normalised to peptide expression (yPet-Mona)"}, "[16]": {"molecular_target": "T2, SP34-binding peptide 14995", "test": "flow cytometry on peptide-displaying E. coli, 0.1 nM SP34-dylight-488 with 100 nM isotype control, normalised to peptide expression (yPet-Mona)"}, "[17]": {"molecular_target": "T3, SP34-binding peptide 15003", "test": "flow cytometry on peptide-displaying E. coli, 0.1 nM SP34-dylight-488 with 100 nM isotype control, normalised to peptide expression (yPet-Mona)"}, "[18]": {"molecular_target": "T4, SP34-binding peptide 15263", "test": "flow cytometry on peptide-displaying E. coli, 0.1 nM SP34-dylight-488 with 100 nM isotype control, normalised to peptide expression (yPet-Mona)"}, "[19]": {"molecular_target": "T5, SP34-binding peptide 15286", "test": "flow cytometry on peptide-displaying E. coli, 0.1 nM SP34-dylight-488 with 100 nM isotype control, normalised to peptide expression (yPet-Mona)"}, "[20]": {"molecular_target": "T6, SP34-binding peptide 15860", "test": "flow cytometry on peptide-displaying E. coli, 0.1 nM SP34-dylight-488 with 100 nM isotype control, normalised to peptide expression (yPet-Mona)"}, "[21]": {"molecular_target": "T7, SP34-binding peptide 15864", "test": "flow cytometry on peptide-displaying E. coli, 0.1 nM SP34-dylight-488 with 100 nM isotype control, normalised to peptide expression (yPet-Mona)"}, "[22]": {"molecular_target": "T1, SP34-binding peptide 15865", "test": "flow cytometry on peptide-displaying E. coli, 100 nM SP34-dylight-488 with 100 nM isotype control, normalised to peptide expression (yPet-Mona)"}, "[23]": {"molecular_target": "T2, SP34-binding peptide 14995", "test": "flow cytometry on peptide-displaying E. coli, 100 nM SP34-dylight-488 with 100 nM isotype control, normalised to peptide expression (yPet-Mona)"}, "[24]": {"molecular_target": "T3, SP34-binding peptide 15003", "test": "flow cytometry on peptide-displaying E. coli, 100 nM SP34-dylight-488 with 100 nM isotype control, normalised to peptide expression (yPet-Mona)"}, "[25]": {"molecular_target": "T4, SP34-binding peptide 15263", "test": "flow cytometry on peptide-displaying E. coli, 100 nM SP34-dylight-488 with 100 nM isotype control, normalised to peptide expression (yPet-Mona)"}, "[26]": {"molecular_target": "T5, SP34-binding peptide 15286", "test": "flow cytometry on peptide-displaying E. coli, 100 nM SP34-dylight-488 with 100 nM isotype control, normalised to peptide expression (yPet-Mona)"}, "[27]": {"molecular_target": "T6, SP34-binding peptide 15860", "test": "flow cytometry on peptide-displaying E. coli, 100 nM SP34-dylight-488 with 100 nM isotype control, normalised to peptide expression (yPet-Mona)"}, "[28]": {"molecular_target": "T7, SP34-binding peptide 15864", "test": "flow cytometry on peptide-displaying E. coli, 100 nM SP34-dylight-488 with 100 nM isotype control, normalised to peptide expression (yPet-Mona)"}, "[29]": {"molecular_target": "T1, SP34-binding peptide 15865", "test": "flow cytometry on peptide-displaying E. coli, 1 nM SP34-dylight-488 with 100 nM free human CD3ε as competitor, normalised to peptide expression (yPet-Mona)"}, "[30]": {"molecular_target": "T2, SP34-binding peptide 14995", "test": "flow cytometry on peptide-displaying E. coli, 1 nM SP34-dylight-488 with 100 nM free human CD3ε as competitor, normalised to peptide expression (yPet-Mona)"}, "[31]": {"molecular_target": "T3, SP34-binding peptide 15003", "test": "flow cytometry on peptide-displaying E. coli, 1 nM SP34-dylight-488 with 100 nM free human CD3ε as competitor, normalised to peptide expression (yPet-Mona)"}, "[32]": {"molecular_target": "T4, SP34-binding peptide 15263", "test": "flow cytometry on peptide-displaying E. coli, 1 nM SP34-dylight-488 with 100 nM free human CD3ε as competitor, normalised to peptide expression (yPet-Mona)"}, "[33]": {"molecular_target": "T5, SP34-binding peptide 15286", "test": "flow cytometry on peptide-displaying E. coli, 1 nM SP34-dylight-488 with 100 nM free human CD3ε as competitor, normalised to peptide expression (yPet-Mona)"}, "[34]": {"molecular_target": "T6, SP34-binding peptide 15860", "test": "flow cytometry on peptide-displaying E. coli, 1 nM SP34-dylight-488 with 100 nM free human CD3ε as competitor, normalised to peptide expression (yPet-Mona)"}, "[35]": {"molecular_target": "T7, SP34-binding peptide 15864", "test": "flow cytometry on peptide-displaying E. coli, 1 nM SP34-dylight-488 with 100 nM free human CD3ε as competitor, normalised to peptide expression (yPet-Mona)"}}}
{"binder": "B1", "values": [{"measurement": "expression normalized binding", "setting": "[1]", "value": 0.79}, {"measurement": "expression normalized binding", "setting": "[2]", "value": 0.13}, {"measurement": "expression normalized binding", "setting": "[3]", "value": 0.2}, {"measurement": "expression normalized binding", "setting": "[4]", "value": 0.35}, {"measurement": "expression normalized binding", "setting": "[5]", "value": 0.42}, {"measurement": "expression normalized binding", "setting": "[6]", "value": 0.52}, {"measurement": "expression normalized binding", "setting": "[7]", "value": 0.36}, {"measurement": "expression normalized binding", "setting": "[8]", "value": 1.08}, {"measurement": "expression normalized binding", "setting": "[9]", "value": 0.11}, {"measurement": "expression normalized binding", "setting": "[10]", "value": 0.39}, {"measurement": "expression normalized binding", "setting": "[11]", "value": 0.69}, {"measurement": "expression normalized binding", "setting": "[12]", "value": 0.66}, {"measurement": "expression normalized binding", "setting": "[13]", "value": 1.72}, {"measurement": "expression normalized binding", "setting": "[14]", "value": 0.63}, {"measurement": "expression normalized binding", "setting": "[15]", "value": 0.21}, {"measurement": "expression normalized binding", "setting": "[16]", "value": 0.08}, {"measurement": "expression normalized binding", "setting": "[17]", "value": 0.11}, {"measurement": "expression normalized binding", "setting": "[18]", "value": 0.24}, {"measurement": "expression normalized binding", "setting": "[19]", "value": 0.28}, {"measurement": "expression normalized binding", "setting": "[20]", "value": 0.48}, {"measurement": "expression normalized binding", "setting": "[21]", "value": 0.15}, {"measurement": "expression normalized binding", "setting": "[22]", "value": 2.24}, {"measurement": "expression normalized binding", "setting": "[23]", "value": 0.51}, {"measurement": "expression normalized binding", "setting": "[24]", "value": 0.69}, {"measurement": "expression normalized binding", "setting": "[25]", "value": 2.28}, {"measurement": "expression normalized binding", "setting": "[26]", "value": 1.72}, {"measurement": "expression normalized binding", "setting": "[27]", "value": 4.55}, {"measurement": "expression normalized binding", "setting": "[28]", "value": 1.88}, {"measurement": "expression normalized binding", "setting": "[29]", "value": 0.26}, {"measurement": "expression normalized binding", "setting": "[30]", "value": 0.08}, {"measurement": "expression normalized binding", "setting": "[31]", "value": 0.12}, {"measurement": "expression normalized binding", "setting": "[32]", "value": 0.34}, {"measurement": "expression normalized binding", "setting": "[33]", "value": 0.34}, {"measurement": "expression normalized binding", "setting": "[34]", "value": 0.51}, {"measurement": "expression normalized binding", "setting": "[35]", "value": 0.3}]}
